The data set can be described thus: yeast display, Sf9 membrane polyspecificity reagent, FACS + sequencing; frameworks hold sequencing errors. The method in brief:
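Sorting gates, low and high (top ~1%), were placed on anti-HA fluorescence to track expression and on streptavidin fluorescence to track reagent binding. A clone's polyreactivity label is taken from the gate it came out of. The reagent was 10% biotinylated, detergent-solubilized Sf9 membrane, applied for 1 hour at 4 °C to galactose-induced yeast display cells.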
With “QDQLVESAGGLVQAGGSLRLSCAASASTFIVYAMGWYRQAPGKEREFVATINHSGDSTYYADSVKGRFTISRDNAKNTVYLQMNSLKPEDTAVYYCNATVVFVQYVDYDYWGQGTLVTVSS”, the “polyreactivity (PSR sort gate)” value is listed as “low polyreactivity”.

For the sequence “QDQLVESAGGLVQAGGSLRLSCAASGRIFKSYAMGWYRQAPGKERELVASTSYTGGSTYYADSVKGRFTISRDNAKNTVYIQRNSLKPDETAVYYCAPKRVRSAGSYGYWGQGTQVTVSS”, the “polyreactivity (PSR sort gate)” value is listed as “low polyreactivity”. As for “QDQLVESAGGLVQAGGSLRLSCAASGRTFVTNTMGWSRQAPGKERELVAAISSRGGTTYYADSVKGRFTISRDNAKNTVYLQMNSLKPEDTAVYYCNTGTRAIQRDGFEYWGQGTQVTVSS”, the “polyreactivity (PSR sort gate)” value is listed as “low polyreactivity”. Take “QDQLVESAGGLVQAGGSLRLSCAATGLNLVPNTMGLYRQAPGKETQLVAAISYSGGGTYYADSVKGRFTISRDNAKNTVYLQMNSLKPEDTAVYYCAAYVKREYAPYGYWGQGTQVTVSS”: the “polyreactivity (PSR sort gate)” value is “low polyreactivity”. With “QDQLVESGAGLVQAGGSLRLSCAASGSTFGIYAMGWSRQAPGKEREFVAAISRSGSSTYYADSVKGRFTISRDNAKNTVYLQMNSLKPEDTAVYYCAAVVRYSQAGYYYWGQGTHVTVSS”, the “polyreactivity (PSR sort gate)” value was “high polyreactivity”.

With “QDQLVESGGALVQPGGSLRLSCAASGRLLGRYAMGWYRQAPGKDRELVATITSGDDTNYADSVKGRFTISRDNAKNTVYLQMNSLKPEDTAVGYWGQGTQVTVSS”, the “polyreactivity (PSR sort gate)” value was “low polyreactivity”. Take “QDQLVESGGCLVQAGGSLRLRCAASGRTFEAYAKGGYRQAPGKERELVASISSGGSTYYADSVNGRFTISRDNAKNTVYLQMNSLKPEDTAVYYCAAKRATRYYFAYYRARSERMNYWGQGTQVTVSS”: the “polyreactivity (PSR sort gate)” value was “high polyreactivity”. To “QDQLVESGGCLVQAGGSLRLSCAASGSIFKTYAMGWYRQAPGKERELVAAISWRGGSTYYADSVKGRFTISRDNAKNTVYLQMISLKPEDTAVYYCAAGRKFGTRTLWYRYGYWGQGTQVTVSS” belongs “high polyreactivity”; to “QDQLVESGGGFVQAGGSLRLSCAASGFIFVTYAMGWFRQAPGKERELVAAITWSTTSTYYADSVKGRFTISRDNAKNTVYLQMNSLKPDETAVYSCAKYYFQYKHDYWGQGTQVTVSS”, “low polyreactivity”. To “QDQLVESGGGFVQAGGSLRLSCEASGSIFNYYAMGCSRQAPGKERELVAAITTSGGNTYYADSVKGRFTISRDNAKNTVYLQMNSLKPEDTAVYYCAADYWASGGEYDYWGQGTQVTVSS” belongs “low polyreactivity”.

As for “QDQLVESGGGFVQAGGSRRLSCAASGRTLAYNAMGWYRPAPGKEWEFVAAITYSGGSTYYADSVKGRFTISRDNAKNTVYLQMYSLKPEDTAVYYCNAKRKRGYGSKFDYWGQGTQVTVSS”, the “polyreactivity (PSR sort gate)” value is listed as “high polyreactivity”. Under “QDQLVESGGGIVQAGGSLRLSCAASGRTFGINAMGWSRQAPGKERELVAVISCGDGGTYYADSVKWRFTISRDNAKNTVYLQMKSLKPEDTAVYYCSSEYQSTSLWGGHFVINPYDYWGQATQVTVSS” stands “low polyreactivity”; under “QDQLVESGGGLDHAGGSIRLSCAASGFISKYYAMGWYTQAPGKERELVASISRDGSTSYADTVKGRFTNTRDNAKNPVYLQMNSLKPEDTAVYYCNAGYNWYPLFDYWGQGTQVTVSS”, “high polyreactivity”; under “QDQLVESGGGLDQAGGRLRLSCAASGSIFGVYAMGWYRQAPGKERELVASITWSSGSTNYADSVKGRFTISRDNAKNTVYLQMNSLKPEDTAVYYCNRVYARSQRVVTKFHYDYWGQGTQVTVSS”, “low polyreactivity”.

Turning to “QDQLVESGGGLDQAGGSLRLSCAASGFTFYNYAMGWYRQAPGKERELVAAISWNGGSTYYADSVKGRFTISRDNAKNTVYLQMNSLKPEDTAVYYCNADISQRTRGYYYVWWSRMDYWGQGTQVTVSS”, the “polyreactivity (PSR sort gate)” value is “low polyreactivity”. To “QDQLVESGGGLDQAGGSLRLSCAASGRTFLWNAMGWYRQAPGKERELVARINLSGGRTYYADSVKGRFTISRDNAKNTVYLQMNSLKPDDTAVYYCAATVVRYRRDSWGQGTQVTVSS” belongs “low polyreactivity”; to “QDQLVESGGGLDQAGGSLRLSCAATGGIIRQNVMGWYRQPPGKERELVAAISRRGVITYYADSVKGRFTISRDNAKNTVYLQMNSLKPDDTAVYYCNYKPTWDYSYWGQGTQLTVSS”, “high polyreactivity”; to “QDQLVESGGGLDQARGSLRLSCAACGSTFPRYAMGWSRQAPGKERELVAAITASGGSTYYADSVKGRFTISRDNAKNPVYLQMNSLKPEDTAVYYCATPSLYTGYDYWGQGTQVTVSS”, “low polyreactivity”. To “QDQLVESGGGLFQAGGSLRLICAASGFIFSSYDMGWDRQAPGKERELVAAITTVGSRIYADSVKGRFTISRDNAKNTVDLQMNCLKPEDSAVYVCATVPGGSWLVLWWSTGGDDEYWGHGTQVTVSS” belongs “low polyreactivity”. Under “QDQLVESGGGLFQAGGSLRLSCAASGFTFVDYTMGWYRQEPGKEREFVAAISSSGGSTYYADSVKGRITISRDYAKNTVYFQMNSLKPEDTAVYYCKADAINKRGGRDYWGQGTQVTVSS” stands “high polyreactivity”; under “QDQLVESGGGLFQAGGSLRLSCSASGSIFQYYTMGWYRQAPGKERELVAAIKSGGRTNYADSVKGRFTISRDNAKNTVYLQMNSLKPEDTAVYYCAKRLSTRASFGEEDSWGQGTQVTVSS”, “low polyreactivity”; under “QDQLVESGGGLLQAGGSLRLSCAASGLTFSDYAMGWYRQAPGKEREFVAAITRNGGSTRYADSVKGRFTISRDNAKNTVYVQMNSVKPEDTAVFYCHKVSFVYSRSKGFYYTYLKFEYWGQGTQVTVSS”, “low polyreactivity”. In the case of “QDQLVESGGGLLQAGGSLRLSCAASGSTIGYYAMGWYRQAPGKERELVAAINSGDSTSYADSVKGRFTISRDNAKNTVYLQMNSLKPEDTAVYYCAVRPRRHQYGYWGQGTQVTVSS”, the “polyreactivity (PSR sort gate)” value was “low polyreactivity”. Under “QDQLVESGGGLVHAGGSLRLSCAASVSTFTRYDMGRYRQAPGKERELVDAISWSGGRTHYADSVKGRFTISRENAKNTVYLQMNSLKPEDTAVYYCNTLYDYWYDYWGQGSQVTVSS” stands “low polyreactivity”. Under “QDQLVESGGGLVQAGASLRLSCAASGITFNVYAMGWYRQAPGKEREFVAAISYNGGRTYYADSVKGRFTISRDNAKNTVYLQMNSLKPEDTAVYYCAAQWAWGPYDYWGQGTQVTVSS” stands “high polyreactivity”; under “QDQLVESGGGLVQAGCSLLLSCAASGRIFAKNAMVCYRQAPGKERELVATSSWSGSSTRYADSVKGRFTISRDYAKNSVYLQMNSLKPEDTAVYYCAARPTPRRTPYTATYDYWGQGTQVTVSS”, “high polyreactivity”; under “QDQLVESGGGLVQAGGCLRLSCAASGSIFIPYAMGSYRQAPGKERELVAAISLGDGNTYYADSVKGRFTISRDNAKYTVYLQMNSLKPEDTAVYYCNAVPRKFGDEYWGQGTQVTVSS”, “low polyreactivity”. Under “QDQLVESGGGLVQAGGGLRLSCAASVRTFSKYTMGWYRQAPGKERELVAAISYSGGSTYYADSVKGRFTISRDNAKNTVYLQMNSLKPEDTAVYYCAARASTYKYYYWGQGTQVTVSS” stands “high polyreactivity”; under “QDQLVESGGGLVQAGGILRLSCAASGSTFFHYAMGWYRQAPGQEREFVAANDSNGGSTYYADSVKGRFSISRDNAKNTVYLQMTCLKPEETAVNYCAADDLAEFEYDYWGQGTQVTVSS”, “low polyreactivity”; under “QDQLVESGGGLVQAGGILSLSCAASGSTFSYYAMGWYRQAPGTETELVAAISSRGGSTYYADSVKGRFTISRDNAKNPVYLQMNSLNPEDTAVDYCNADHKFRSSVSGDHDYWGQGTQVTVSS”, “high polyreactivity”. As to “QDQLVESGGGLVQAGGRLRLSCAASGFIFYSYVMGRYRQAPGKERELVASIRSRGGSTYYADSVKGRFTISRDNAKNTVYLQMNSLKPEDTAVYYCAADLYLSPSWYKYDYWGQGTQVTVSS”, the “polyreactivity (PSR sort gate)” value is on record as “low polyreactivity”. To “QDQLVESGGGLVQAGGSHRLSCAASGFISDKNAMGWYRQAPRKERELVAAISQRGDRTYYADSVKGRFTISRDNAKNTVYLQMNSLKPEDTAVYYCGYLVRYHHLRYWGQGTQVTVSS” belongs “high polyreactivity”; to “QDQLVESGGGLVQAGGSHRLSCAASGSTFLGNTMGWYRQAPRKERELVAAISSSGTSTYYADSVKGRFTISRDNAKNTVYLQMNSLKPEDTAVYYCAAVIRVWWGFGDKYDYWGQGTQVTVAS”, “high polyreactivity”; to “QDQLVESGGGLVQAGGSHRLTCAATGITLDNYVMGWYRQAPRTERELVAAISRTSGRTYYADSVKGRFTISRDNAKNTVYLQMHSLKPEDTGVYYCNARSRGRASGYDYWGHGTQVTVSS”, “high polyreactivity”. As to “QDQLVESGGGLVQAGGSIRLSCAASGGIFESYAMGWYRQAPGKEREMVASISSGGSTYYADSVKGRFTISRDNAKNTVYLQMNSLKPEDTAVYYCNKDYRSVYKGRGFDYWGQGTQVTVSS”, the “polyreactivity (PSR sort gate)” value is “low polyreactivity”. As to “QDQLVESGGGLVQAGGSLGLSCAASGSIFGFYDMGWSRQAPGKERELVAAITSGDSTHYADSVKGRFTISRDNAQNTVYVQMNSLKPVDTAVYYCAASAPYRYYRSAYYSWGQGTQVTVSS”, the “polyreactivity (PSR sort gate)” value is given as “low polyreactivity”. To “QDQLVESGGGLVQAGGSLRLICAASARTFSHYPLGWYRQAAGKERELVATITRNGRITYYADSVKGRFTISRDNAKYTVYFQMNSLKPEDTAVYYFNKRWGGPIQFDYWGPGTQVTVSS” belongs “low polyreactivity”; to “QDQLVESGGGLVQAGGSLRLICSASGIILGSNAMGWYRQAPGKERELVAAITSSGSTYYADSVKGRFTISRDNAKNTVYIQMNSLKPEDTAVYYCATGWLRRAVRFNYWGQGTQVTLSS”, “high polyreactivity”; to “QDQLVESGGGLVQAGGSLRLRCAASGSIFGGYAMGWYRQAPGKERELVDAISSGGTTNYADSVMGRFTISRDNAKNTVYLQMNSLKQEDRAVYYCAREYGTTYQSVQVKFIQLDYWGQGTLVTVSS”, “low polyreactivity”. Turning to “QDQLVESGGGLVQAGGSLRLSCAASGFIFFGYAMGWYRQAPGKERELVAAITSGGSTYYADSVKGRFTISRDNAKNTVYLQMNSLKPEDTAVYYCAAVLWYGSKRYGYWGQGTQVTVSS”, the “polyreactivity (PSR sort gate)” value is on record as “high polyreactivity”. For the sequence “QDQLVESGGGLVQAGGSLRLSCAASGFIFGRYTMGWYRQAPGQDRELVAAISSRGGSTYDADSGKGRFTISRDNAKNTVYLQMNSLKPEDTAVYYCNALRRPSTEGRDYWGQGTQVTVSS”, the “polyreactivity (PSR sort gate)” value is on record as “high polyreactivity”.

For the origin of these results see the nanobody polyreactivity screen of Harvey et al. (2022).
